Experimental data published in the DeepSol protein solubility set.

Assay: soluble on expression in E. coli; label from the status in PepcDB or PDB records

Soluble on expression in E. coli, not soluble:
MSLTKMVIKGGTVYDPLNGIDGEVMDIFIKDGKIVENLSDGELKDAKILDVKGKVVMPGGVDSHTHVAGPKVNTGRVMCPEDHYKSPLKKTHNTHCGSGEIVPSTYAQGYKYSSMGYTTLFEAAVPPMLARHTHEEFKVMPIVDKAGYLLLGSNWFVMKYLKEGNVEKAAAYVAWALETTKTFGIKLVNPAGVESWAWGKNVHSLEEENIHFGISSGEVIRGLGAVNEMLGLPMSIHLHANNLGHPGNWEFTIDTMDVAKNIKPAVNKQGYDNGVKTKYSHEREQSLYMTHMQFHSFGGTSWKDFESKAEDISNYVNKSDHVVMDSGSVAFGKAICMTGDGPGLYDLAVMNGQKWANVDVELECGSGVVPFVYSMKNKVHSVQWAMGIELLLLTDPRKVIMTTDNPNAGPFTKYPQLITWLMSKKAREDTMKLCHKWAGERSGLAGNDKELSLYDLATVTRATPAKAIGMGHRKGHLSPGADADITVYDISPDYNSSDYAAIEKAFTTALFTIKDGEVITKDGRIIETPKGRTYYVDAKFNEEIQKEIIADVQDWFRRYYSIGFSNYPVPDLYLTKPTPLNINVREGHHHHHH
MSTHNTHINETMQRNGRNNMAEHRGGSGNFAEDREKASDAGRKGGQHSGGNFKNDPQRASEAGKKGGQQSGGNKSGKS
MGSDKIHHHHHHMEVFVLGCAGSGKSTFVRSFSEFLQERGYSVKCVNLDPASDPAYRADKNVREFVKTENVMVEYGLGVNGALIKSVEIASEHAEELKAEGDFVLYDTPGQLELFIYSEAGRKFVRELSGSFSCSLFLVDLTTVTDPESLLSAIMQDVIVSLRLSLPTLTAFTKSDVADVDVRSLLGEIKHREGVLAELMEKLVDFIELTTIPYRPIKISNIKKTGYEELFSALYELFCAAET
MEQTLKITSVLSDPTRFHIYEYIAKVHREVSVQEIAEKFHIHPNVARLHLTKLEDVRMVVSDTQKTGKGGRPSRLYRLSDEVIGLYFPFRDYQLLARIAIQTMAKLGPIGSEALRETGKRFGRELIASRLPHNGAASALTMADKIAIMEEAAEAAGFLPQLHYDEEKGVLYLDIFNCPFKEIAAQAPDTVCGMHHSFLEGMVETLFAGAEVTETENMMEGSHRCAYRIVIRP
MAFLKIDNGELLKNIRQFAKKNGLTLAEVATLAGLSASAIYSWKKHTPSVGTLKEVAQVLGTSYTKLVGKDKEPTAKATNAAAVDLKKVIENKKNQFEYDGQPITNEQMKIIRNVLKSMFKTPRL
GQDQRRRRIVSRRIYKRIMLKPHYLSIPEAQLEAMNNIQLNPIMKLINNNSDSPVMLSSPPDIFTAGKDMFDCFFRDIEAARHHVHIQFYVIEDDHLGSRLSDLLIRKVQEGVKVRVIFDHVGSWATGRGYWKRLRRAGVEAYPFMPVFFPILSSRVNYRNHRKVAVIDGKIGYLGGMNVADRYYSGNRLGLWRDTHFRMMGNVVAGLQSSFLLDWYVVSRRVINLSGYYPDLPIPVSDEGVKIQLVRSGPVGQWRTIEQATIYCIERACEHVYIETPYFLPTEGLN
MIDFNVDSARCTRCGQCVADCPSRIIVMATGEYPSIAPGKEFSCLRCEHCLAVCPEAAISILGFSPDGSTPLKGNLPETDQLETLIAGRRSVRRYCPENLSPELIDKLITVASCAPTGVNARKVRFTVLDDREKTAHFRDEVMERLVRLLEEEALPESKAYYARFVKVWQKHKIDLVFRDAPHLLIATAPKSLSTPRQDCVIALTTFELYAQACGIGTLWNGIATWAIEEMLPEMRQRLGIPDDHAFGYAMLFGKPAVRYARTVQHHPPEIYRVPLEHHHHHH
MSNQDYTGVRVEGARKLRSTLKKAGIDVRDDMKQAHKDAASIVSRRAAQITPVGPGSRRHKPGQLKASVRPAGTQTAAIVRAGKKRVPYAGPIQWGWHKRKIKPTFFLTRAASDTEPAWLKGYEKKFNQILDSIEGK
MRLTKLAATIGCVTLSGLALVACSSDSTAGTDAVAVGGTFQFHSPDGKMEIFYDEADRQQLPDIGGDSLMEEGTQINLSDFENQVVILNAWGQWCAPCRSESDDLQIIHEELQAAGNGDTPGGTVLGINVRDYSRDIAQDFVTDNGLDYPSIYDPPFMTAASLGGVPASVIPTTIVLDKQHRPAAVFLREVTSKDVLDVALPLVDEA
GPGSMFTQISNAHTEVVTSLVFSPHVVTTCEGGLLCSTSGDDTTALWDLRAGPGVSQRAAHLTGHHVGPVNHALFHPSNAHTLLTASDDRSIGCWDLRRPDRVVGAVSGFQEGVNKMLWLPVTSDGCRGTGGSSSGGGGSVVSACDDGHVYVHALALPDSGSESATVAGAAPVPQVGALVDKFRVSTSTVNDIVLAPNSTSILITASEDCALRSWSLRHAQQMTNTSVGLMEDRLLATLDEFENPVNHVVVVPSGLMAPVESRAAGEDPESSSSRSPAGAAGDAEESADAAAASTGFPRAYQQVHGGDDVEDAEVGSDAGSSAGARQPRRATDISEAAGTACWLLAACSECVFGVDFALRVGEFGTGARAFVGHQDYVRGLEFTSEGKLLTVSDDSTAIEWDLATTDPIRQVKLHEGLVMSSAVSPSRNLLATGTDRGELRVWRLPFATERIGGSP
MSLSPIAPYEIGYVHIDSCELCHADGKLVMFLAIDRVSKFTYVDFHDCAGKMEGAAFLRNVVEAFPYQIHIVLTDNGMAFADLPKNRNGPSRRFFGPHIFDRVCIEHGIEHRLTKPYHPWTNGQAERMNRTIKDATIKAYHYDDLESLKAHVLAFVTAYNFAKHLKALRWRTPYQAICDARTKDPSIFKIDPHHLTQGPHTLSEGHHHHHH
MAHHHHHHMSRNPSNSDAAHAFWSTQPVPQTEDETEKIVFAGPMDEPKTVADIPEEPYPIASTFEWWTPNMEAADDIHAIYELLRDNYVEDDDSMFRFNYSEEFLQWALCPPNYIPDWHVAVRRKADKKLLAFIAGVPVTLRMGTPKYMKVKAQEKGEGEEAAKYDEPRHICEINFLCVHKQLREKRLAPILIKEATRRVNRTNVWQAVYTAGVLLPTPYASGQYFHRSLNPEKLVEIRFSGIPAQYQKFQNPMAMLKRNYQLPSAPKNSGLREMKPSDVPQVRRILMNYLDSFDVGPVFSDAEISHYLLPRDGVVFTYVVENDKKVTDFFSFYRIPSTVIGNSNYNLLNAAYVHYYAATSIPLHQLILDLLIVAHSRGFDVCNMVEILDNRSFVEQLKFGAGDGHLRYYFYNWAYPKIKPSQVALVML
MTQIGLYPSALTKPFELSLSAIKSVLEPENPSYSKRVPNCQKCGQHGRKSRLKGHKRSCPFRECPCAKVCVFSNKRSSRVSLE
MRKRLITVKNLFEYVQENELVIQADMIITPGAKDIIRDKGIGVKYEKCCCESESKMKNEIKKDCQNFEKKVIDIITKEFKITDSETVQKILSKLKELL
TPDADKKGAVFALDQEPEAQAAVVALDPLSGAVKAMVGGYDFRKSQFNRALQAKRNPGSAFKPLIYAAALDKGITPATIFDDSPVEYESGKEKAWKPKNYDNIYRGNVTMREALTNSINVVSVKILEQIGVDYAIEYAKKLGITSPLSANLTLALGSSSLTPLELTSAYAVFASGGYRTTPYFVTRVEDAEGRTLEETAPPVIPRFSVMTSAESSPLEASPAPPATAGDSASTAVPVIAPETAYIMTNLMESVVQSGTGQRARAVGRPVAGKTGTTNDMKDAWFVGYIPQLVAGVWVGYDQERSLGAGGSGGQAAAPIWTEFMRRAVAGIPSRDF
MGSDKIHHHHHHMTLELCRLSLQQTQELLRLTDATLKNICSRRFSGEELYSEAIRRVLGGGGKRGPESIFLLIDGIGGTSRGWIFQLQAGELVRSSDEILVDADSVYSLGRLGSEVLVSNWRESFESIERYQVIFHPDIVKHIAKPIRNFVACQISGESNGALLAFNYAGEATEYDGDVLRGLSVVIGSLVTLSVMVRETEHAFIYTIEALARACEAAEESTGDHIVRVNRYAGALAAHMDLSPDFVEVISYSAQMHDVGKIRVPTAILLKPGPLDEAEERVMRLHPEFGEQILGDSPRLSVAREIALSHHENWDGSGYPRGLQGEAIPLAGRIVKLADVYDALRSRRSYKKALSHAEARAVFLNGDERITPRSHFDPRVLETFFRIEPLFERIYQSSRNQQV

Soluble on expression in E. coli, soluble:
MGSDKIHHHHHHMIRLGLTSFSEHDYLTGKKRSTLYEYASHLPLVEMDTAYYGIPPKERVAEWVKAVPENFRFVMKVYSGISCQGEWQTYYASEEEMITAFLESMAPLIESKKLFAFLVQFSGTFGCTKENVAYLQKIRHWFKDLPIAIELRNNSWYQPNFVKQMLQFMKENQFSLVIVDEPQIPTNPVPFYPYVTNPNLVLFRFHGRNAAGWLANDAEWRKKRTLYHYNTQEIADLSEAVLKMSQEAKEVGVIFNNNSGGDAAENALQMQKVLNLSYDDLNPKQLDLF
VEPVDPCFRANCEYQCQPLNQTSYLCVCAEGFAPIPHEPHRCQLFCNQTACPADCDPNTQASCECPEGYILDDGFICTDIDECENGGFCSGVCHNLPGTFECICGPDSALAGQIGTDCDSG
MKYKHLILSLSLIMLGPLAHAEEIGSVDTVFKMIGPDHKIVVEAFDDPDVKNVTCYVSRAKTGGIKGGLGLAEDTSDAAISCQQVGPIELSDRIKNGKAQGEVVFKKRTSLVFKSLQVVRFYDAKRNALAYLAYSDKVVEGSPKNAISAVPVMPWRQ
MTREAFAPYQCLATDLLKYLPSDQNDGSHDLAHIHRVWVNAHRIQRVEGGDLEILLAATVLHDCVAVEKHSPLRGQASTLSANKAASVLAEMGWPSGRVEQVVHAIKTHSYSAGFEPLTREACILQDSDRLDAIGAVGIARCFYVAGRMGSALYDFENPFAQQRAYQDGAYAIEHFQTKLLKLASGFKTQEGARLAAERHTRLETFLTQFMDEITGAGLEHHHHHH
MSLAKILVIDDESTILQNIKFLLEIDGNEVLTASSSTEGLRIFTENCNSIDVVITDMKMPKLSGMDILREIKKITPHMAVIILTGHGDLDNAILAMKEGAFEYLRKPVTAQDLSIAINNAINRKKLLMENERMTQELLAHRNYLQGLHDSAAKILLNMLPKNLPDIEGFNFAVDYKSCDGVGGDMYDVCDIGDYICFYVFDVSHHGILAAVISIIIKSFLQNIEYNYRQGINKRRFPEIVLDLNLELLSNTAQNVFASLFLGFIDKNSKKLYTVSAGHIPQYIMKENGLVPLESTGPILGVFEDSTYKCAVNQLEPGDKVLLFTDGIIESPSDSSDESSDGNQIFGYENMVKVLESCKNEPISTTIDKIMKAVKDFSGNRCTDDMTILGVEVLKENEGHHHHHH
MAESPSQSDAQLVAHQSPGQQADSDLTSLVFDYKSVLCVYFFSHLLTVLKTNAIAEMSQQVQMGMENMLKMVYEIDQNSVGIKEEIEKSKDFAMEKKRILEEEKDQFQKAAYTILDMLSNSRG
MDDERKRKKYTLYLHPEKAADFQTLEAIESVPRSERGELFRNAFISGMALHQLDPRLPVLLTAILSEEFSADQVVTLLSQTTGWKPSQADIRAVLTELGASQSVEKMPPSATDSVQEAMNDVRLKMKKLF
MTQVIIDGDACPVTNSIIELTKGTGIFVTVVRSFSHFSTVIQPEHVNIIYVDDGPDAVDYRIVKLVHSDDLVVTQDYGLASLLLNKAKIVMHHKGFIYNQENINTLLEQRHASAQFRKSGGRTKGPAAFTEEDVSKFESIFSNLIHKYFLETEDLEHHHHHH
